To fix the notation:
B2: SNX17_(FERM-CT) (amino acids 109-470) (domain or fragment)
chain: TQQVPTEEVSLEVLLSNGQKVLVNVLTSDQTEDVLEAVAAKLDLPDDLIGYFSLFLVREKEDGAFSFVRKLQEFELPYVSVTSLRSQEYKIVLRKSYWDSAYDDDVMENRVGLNLLYAQTVSDIERGWILVTKEQHRQLKSLQEKVSKKEFLRLAQTLRHYGYLRFDACVADFPEKDCPVVVSAGNSELSLQLRLPGQQLREGSFRVTRMRCWRVTSSVPLPSGSTSSPGRGRGEVRLELAFEYLMSKDRLQWVTITSPQAIMMSICLQSMVDELMVKKSGGSIRKMLRRRVGGTLRRSDSQQAVKSPPLLESPDATRESMVKLSSKLSAVSLRGIGSPSTDASASDVHGNFAFEGIGDEDL
B5: MBP-SNX17 H457A (natural protein)
chain: MHFSIPETESRSGDSGGSAYVAYNIHVNGVLHCRVRYSQLLGLHEQLRKEYGANVLPAFPPKKLFSLTPAEVEQRREQLEKYMQAVRQDPLLGSSETFNSFLRRAQQETQQVPTEEVSLEVLLSNGQKVLVNVLTSDQTEDVLEAVAAKLDLPDDLIGYFSLFLVREKEDGAFSFVRKLQEFELPYVSVTSLRSQEYKIVLRKSYWDSAYDDDVMENRVGLNLLYAQTVSDIERGWILVTKEQHRQLKSLQEKVSKKEFLRLAQTLRHYGYLRFDACVADFPEKDCPVVVSAGNSELSLQLRLPGQQLREGSFRVTRMRCWRVTSSVPLPSGSTSSPGRGRGEVRLELAFEYLMSKDRLQWVTITSPQAIMMSICLQSMVDELMVKKSGGSIRKMLRRRVGGTLRRSDSQQAVKSPPLLESPDATRESMVKLSSKLSAVSLRGIGSPSTDASASDVAGNFAFEGIGDEDL
notes: not shown: MBP, N-terminal, kept

What all share (details): both partners purified
In assay [1] the target is T1, MBP-SNX17 (full-length, wild-type) (UniProt Q15036 1-470).
T1 construct: also called MBP-SNX17FL; WT; not shown: MBP, N-terminal, kept
T1 sequence (looked up): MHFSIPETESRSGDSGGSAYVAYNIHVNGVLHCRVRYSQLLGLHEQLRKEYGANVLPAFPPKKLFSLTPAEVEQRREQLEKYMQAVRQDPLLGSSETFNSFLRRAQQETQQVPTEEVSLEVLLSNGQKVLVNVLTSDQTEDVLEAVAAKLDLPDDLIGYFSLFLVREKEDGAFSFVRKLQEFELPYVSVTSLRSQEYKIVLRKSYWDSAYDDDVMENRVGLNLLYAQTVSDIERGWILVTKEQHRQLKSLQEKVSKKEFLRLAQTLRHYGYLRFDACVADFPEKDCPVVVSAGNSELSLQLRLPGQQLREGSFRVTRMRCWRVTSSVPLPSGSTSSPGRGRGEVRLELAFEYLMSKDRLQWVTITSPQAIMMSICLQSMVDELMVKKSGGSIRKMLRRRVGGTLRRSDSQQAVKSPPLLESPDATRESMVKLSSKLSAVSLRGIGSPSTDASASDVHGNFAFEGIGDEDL
Briefly: pull-down.

In assay [2] the target is T2, Retriever complex (UniProt O14972 1-297; Q9UBQ0 1-182; Q7Z3J2 1-963). The experiment in a line: pull-down; GST pull-down: GST-L2FBR on glutathione agarose, Retriever together with SNX17PX, SNX17 FERM-CT or MBP-SNX17FL; VPS35L band quantified; Coomassie.
The target in assay [3] is T2, Retriever complex. The experiment in a line: pull-down.
The assay “MBP-SNX17 H457A” deals with B5. Briefly: fluorescence polarisation.
For a further assay, the target named is T3, MBP-SNX17 L470G (UniProt Q15036 1-470, L470G).
T3 construct: not shown: MBP, N-terminal, kept
T3 sequence (looked up): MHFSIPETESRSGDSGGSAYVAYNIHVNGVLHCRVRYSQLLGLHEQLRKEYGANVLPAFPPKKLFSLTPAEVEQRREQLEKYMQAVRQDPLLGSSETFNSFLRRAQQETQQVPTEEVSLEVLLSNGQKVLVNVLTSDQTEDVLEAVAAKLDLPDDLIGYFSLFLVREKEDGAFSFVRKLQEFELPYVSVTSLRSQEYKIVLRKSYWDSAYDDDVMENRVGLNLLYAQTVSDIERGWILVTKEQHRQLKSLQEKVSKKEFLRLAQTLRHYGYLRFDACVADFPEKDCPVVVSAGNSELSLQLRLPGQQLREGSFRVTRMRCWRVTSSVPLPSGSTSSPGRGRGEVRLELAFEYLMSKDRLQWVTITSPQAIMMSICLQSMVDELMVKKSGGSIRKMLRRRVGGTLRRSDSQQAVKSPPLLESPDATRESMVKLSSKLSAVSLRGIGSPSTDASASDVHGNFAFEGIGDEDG
The experiment in a line: fluorescence polarisation.

Assay [4] has as its target B2. The experiment in a line: fluorescence polarisation.
The next assay deals with T4, MBP-SNX17 N459A + F462A (UniProt Q15036 1-470, N459A | F462A).
T4 construct: not shown: MBP, N-terminal, kept
T4 sequence (looked up): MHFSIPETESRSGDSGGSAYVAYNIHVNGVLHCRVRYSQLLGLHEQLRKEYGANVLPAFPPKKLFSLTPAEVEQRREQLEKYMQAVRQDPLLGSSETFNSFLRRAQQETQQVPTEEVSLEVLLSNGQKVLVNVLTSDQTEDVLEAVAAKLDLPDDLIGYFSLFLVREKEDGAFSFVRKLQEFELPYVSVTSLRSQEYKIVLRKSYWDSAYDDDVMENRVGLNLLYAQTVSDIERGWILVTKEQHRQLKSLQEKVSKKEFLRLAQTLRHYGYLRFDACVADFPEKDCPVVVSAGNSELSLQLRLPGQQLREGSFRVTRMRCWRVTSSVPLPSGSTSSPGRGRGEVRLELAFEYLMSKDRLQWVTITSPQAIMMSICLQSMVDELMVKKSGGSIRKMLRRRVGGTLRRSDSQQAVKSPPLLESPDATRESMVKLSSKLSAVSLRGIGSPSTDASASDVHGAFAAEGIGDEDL
The experiment in a line: fluorescence polarisation.

The values below come from paper PMC11772769, “Selective cargo and membrane recognition by SNX17 regulates its interaction with Retriever” (EMBO Reports, 2024).

Where no end group is shown, it is not given here. The star is where a group is joined. 5FAM = O=C1OC2(c3ccc(O)cc3Oc3cc(O)ccc32)c2ccc(C(=O)*)cc21

B1: GST-LRP1ICD (domain or fragment, UniProt Q07954 4444-4544, looked up)
chain: YKRRVQGAKGFQHQRMTNGAMNVEIGNPTYKMYEGGEPDDVGGLLDADFALDPDKPTNFTNPVYATLYMGGHGSRHSLASTDEKRELLGRGPEDEIGDPLA
notes: not shown: GST, N-terminal, kept
Turning to B1, in assay [1], the binding result is reported as “binds”.

DPAFVTTPTKLITYDNPAYEGIDVDNTLYF (domain or fragment, not shown: GST, N-terminal, kept) [GST-L2FBR]: in assay [1], the binding result was “binds”.

On to B2, for which the binding result with Retriever complex [2] was “binds”.

B3: MBP-SNX17 W321A (natural protein)
chain: MHFSIPETESRSGDSGGSAYVAYNIHVNGVLHCRVRYSQLLGLHEQLRKEYGANVLPAFPPKKLFSLTPAEVEQRREQLEKYMQAVRQDPLLGSSETFNSFLRRAQQETQQVPTEEVSLEVLLSNGQKVLVNVLTSDQTEDVLEAVAAKLDLPDDLIGYFSLFLVREKEDGAFSFVRKLQEFELPYVSVTSLRSQEYKIVLRKSYWDSAYDDDVMENRVGLNLLYAQTVSDIERGWILVTKEQHRQLKSLQEKVSKKEFLRLAQTLRHYGYLRFDACVADFPEKDCPVVVSAGNSELSLQLRLPGQQLREGSFRVTRMRCARVTSSVPLPSGSTSSPGRGRGEVRLELAFEYLMSKDRLQWVTITSPQAIMMSICLQSMVDELMVKKSGGSIRKMLRRRVGGTLRRSDSQQAVKSPPLLESPDATRESMVKLSSKLSAVSLRGIGSPSTDASASDVHGNFAFEGIGDEDL
notes: as for B5
As to B3, the binding result in the assay with Retriever complex [3] is reported as “binds”.

B4: MBP-SNX17 V380D (natural protein)
chain: MHFSIPETESRSGDSGGSAYVAYNIHVNGVLHCRVRYSQLLGLHEQLRKEYGANVLPAFPPKKLFSLTPAEVEQRREQLEKYMQAVRQDPLLGSSETFNSFLRRAQQETQQVPTEEVSLEVLLSNGQKVLVNVLTSDQTEDVLEAVAAKLDLPDDLIGYFSLFLVREKEDGAFSFVRKLQEFELPYVSVTSLRSQEYKIVLRKSYWDSAYDDDVMENRVGLNLLYAQTVSDIERGWILVTKEQHRQLKSLQEKVSKKEFLRLAQTLRHYGYLRFDACVADFPEKDCPVVVSAGNSELSLQLRLPGQQLREGSFRVTRMRCWRVTSSVPLPSGSTSSPGRGRGEVRLELAFEYLMSKDRLQWVTITSPQAIMMSICLQSMDDELMVKKSGGSIRKMLRRRVGGTLRRSDSQQAVKSPPLLESPDATRESMVKLSSKLSAVSLRGIGSPSTDASASDVHGNFAFEGIGDEDL
notes: as for B5
On to B4, for which the binding result with Retriever complex [3] is reported as “binds”.

In the case of B5, the binding result with Retriever complex [3] was “binds”.

Consider 5FAM-MNVEIGNPTYKMYE (source: synthetic peptide (GenScript)) [Peptide LRP1_(14mer)], for which the binding result with MBP-SNX17 H457A, with MBP-SNX17 L470G and with MBP-SNX17 N459A + F462A was “binds” each time. This molecule also displayed a Kd in assay [4] of 2.2 µM.

5FAM-KLITYDNPAYEGID (source: synthetic peptide (GenScript)) [Peptide L2_(14mer)] showed a Kd in assay [4] of 0.6 µM. The binding result with MBP-SNX17 N459A + F462A is “binds”.

B6: Peptide ITGB1_(P-14mer) (peptide)
peptide: 5FAM-KWDTGENPIYKSAV
notes: also called ITGB1 membrane-proximal site; source: synthetic peptide (GenScript)
Turning to B6, the dissociation constant Kd in assay [4] was 72 µM.

B7: Peptide ITGB1_(D-13mer) (peptide)
peptide: 5FAM-AVTTVVNPKYEGK
notes: also called ITGB1 distal site; source: synthetic peptide (GenScript)
With B7, in assay [4], binding was put at a Kd of 125 µM.

For 5FAM-QQNGYENPTYKFFE (source: synthetic peptide (GenScript)) [Peptide APP_(14mer)], binding in assay [4] was put at a Kd of 19 µM.
